To fix the notation:
B1: DOM4-130-54 (other)
VL: DIQMTQSPSSLSASVGDRVTITCRASQDIYLNLDWYQQKPGKAPKLLINFGSELQSGVPSRFSGSGYGTDFTLTISSLQPEDFATYYCQPSFYFPYTFGQGTKVEIKR
notes: dAb (VK single variable domain) against IL-1R1; parent
B2: DOM4-130-201 (other)
chain: DIQMTQSPSSLSASVGDRVTITCRASQDIYLNLDWYQQKPGKAPKLLIKFGSELQSGVPSRFSGSGYGTDFTLTISNLQPEDFATYYCQPSFYFPYTFGQGTKVEIKW
B3: DOM4-130-202 (other)
chain: DIQMTQSPSSLSASVGDRVTISCRASQDIYLNLDWYQQKPGKAPKLLISFGSELQSGVPSRFSGSGYGTDFTLTISSLQPEDSATYYCQPSFYYPYTFGQGTKVEIKR

IC50 data for three molecules are collected here from US20170174775A1 (published 2017).

For this test, the target named is T1, IL-RI (Receptor Binding Assay).
T1 construct: The construct used in the RBA is not described; it may be the same as the IL-1R1 fusion protein; also called IL-1RI; IL-1R1
T1 sequence (P14778 whole entry, the tested form may be a part): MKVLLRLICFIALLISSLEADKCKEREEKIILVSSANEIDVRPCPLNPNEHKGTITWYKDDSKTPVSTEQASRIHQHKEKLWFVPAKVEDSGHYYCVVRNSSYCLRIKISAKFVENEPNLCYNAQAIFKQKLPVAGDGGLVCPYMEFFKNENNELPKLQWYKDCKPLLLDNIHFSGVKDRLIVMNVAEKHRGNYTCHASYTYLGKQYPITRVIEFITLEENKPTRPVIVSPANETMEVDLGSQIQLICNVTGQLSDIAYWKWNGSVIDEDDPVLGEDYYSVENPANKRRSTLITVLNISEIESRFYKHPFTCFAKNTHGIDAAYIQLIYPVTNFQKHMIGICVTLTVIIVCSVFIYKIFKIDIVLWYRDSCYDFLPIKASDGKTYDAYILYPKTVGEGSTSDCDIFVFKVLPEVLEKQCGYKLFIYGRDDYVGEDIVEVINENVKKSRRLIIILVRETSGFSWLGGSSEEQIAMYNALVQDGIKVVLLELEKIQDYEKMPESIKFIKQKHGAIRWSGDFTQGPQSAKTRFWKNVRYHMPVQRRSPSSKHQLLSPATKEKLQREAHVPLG
Briefly: Receptor Binding Assay; inhibition of IL-1 binding to IL-RI.
For B1, the IC50 worked out at 0.28 nM.

As for B2, the IC50 stood at 0.257 nM.

With B3, the IC50 stood at 0.254 nM.
